Where no end group is shown, it is not given here.
Tests used:
Assay in all cases: cell-based or functional assay
[1] = target: JNK (c-Jun N-terminal Kinase)
[2] = target: p38 MAPK (p38 Mitogen-Activated Protein Kinase)
[3] = target: T1, MKK4 (Mitogen-Activated Protein Kinase Kinase 4) (UniProt P45985 1-399)
T1 sequence: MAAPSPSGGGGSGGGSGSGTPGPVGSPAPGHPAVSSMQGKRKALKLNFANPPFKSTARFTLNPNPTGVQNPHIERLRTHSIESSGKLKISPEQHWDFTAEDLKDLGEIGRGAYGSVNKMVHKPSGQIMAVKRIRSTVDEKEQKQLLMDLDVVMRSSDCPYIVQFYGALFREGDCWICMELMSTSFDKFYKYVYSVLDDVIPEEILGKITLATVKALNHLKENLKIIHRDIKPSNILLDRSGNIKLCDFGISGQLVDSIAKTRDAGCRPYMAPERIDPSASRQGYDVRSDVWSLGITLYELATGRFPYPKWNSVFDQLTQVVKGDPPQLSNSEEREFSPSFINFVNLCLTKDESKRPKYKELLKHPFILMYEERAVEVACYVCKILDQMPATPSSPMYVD

[4] = target: T2, PRAK (p38-Regulated/Activated Protein Kinase) (UniProt Q8IW41 1-473)
T2 sequence: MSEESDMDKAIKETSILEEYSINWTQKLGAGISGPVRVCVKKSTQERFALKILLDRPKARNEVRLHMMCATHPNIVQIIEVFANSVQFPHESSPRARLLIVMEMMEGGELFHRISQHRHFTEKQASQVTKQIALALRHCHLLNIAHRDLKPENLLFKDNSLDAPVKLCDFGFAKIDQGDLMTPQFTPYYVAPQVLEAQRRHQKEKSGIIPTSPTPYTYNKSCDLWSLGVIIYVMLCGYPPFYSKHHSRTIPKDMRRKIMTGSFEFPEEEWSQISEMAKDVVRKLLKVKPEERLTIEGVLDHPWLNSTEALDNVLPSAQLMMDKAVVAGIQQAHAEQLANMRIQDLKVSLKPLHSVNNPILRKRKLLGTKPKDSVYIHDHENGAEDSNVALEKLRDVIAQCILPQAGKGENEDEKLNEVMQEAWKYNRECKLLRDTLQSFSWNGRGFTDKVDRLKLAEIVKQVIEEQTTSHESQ

[5] = target: MEK1 (Meiosis-specific serine/threonine protein kinase) (UniProt Q02750 1-393)
[6] = target: T3, MKK6 (Mitogen-Activated Protein Kinase Kinase) (UniProt P52564 1-334)
T3 sequence: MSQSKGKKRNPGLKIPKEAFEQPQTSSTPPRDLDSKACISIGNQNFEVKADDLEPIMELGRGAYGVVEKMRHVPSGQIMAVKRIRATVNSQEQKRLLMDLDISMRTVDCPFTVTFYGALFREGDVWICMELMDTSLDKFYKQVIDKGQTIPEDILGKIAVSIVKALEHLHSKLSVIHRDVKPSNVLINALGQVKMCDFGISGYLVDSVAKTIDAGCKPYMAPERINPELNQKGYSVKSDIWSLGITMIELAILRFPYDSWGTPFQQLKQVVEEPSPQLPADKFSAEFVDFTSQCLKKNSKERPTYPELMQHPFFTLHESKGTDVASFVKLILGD

YARAAARQARAKALARQLGVAA (not fully specified (C-terminus)) [MMI-0100 (YARAAARQARAKALARQLGVAA; SEQ ID NO: 1)]
Percent Activity (radiometric kinase assay, peptide at 100 µM) [1]: 92 % activity | Percent Activity (radiometric kinase assay, peptide at 100 µM) [2]: 60 % activity | Percent Activity (radiometric kinase assay, peptide at 100 µM) [3]: 90 % activity | Percent Activity (radiometric kinase assay, peptide at 100 µM) [4]: 100 % activity | Percent Activity (radiometric kinase assay, peptide at 100 µM) [5]: 68 % activity | Percent Activity (radiometric kinase assay, peptide at 100 µM) [6]: 50 % activity

Reference: patent US20130115256A1 (published 2013)
